This series deals with the molecule itself. Kind of series: cross-linking; 3 µg synthetic MTALTND4 in 20 µl PBS 1x with 0%, 0.5% or 1% paraformaldehyde, 30 °C, 10 min; tricine-SDS-PAGE, Coomassie stain.

B1: MTALTND4 (mitochondrial alternative ND4 protein), complete synthetic peptide (peptide)
chain: MRHNYNKLHLPTTNRPKIAHCMLFNQPHSPRSNSHSHPNPLKLHRRSHSHNRPRAYILITILPSKLKLRTHSQSHHNPLSRTSNSTPTNSFLMTSSKPR
notes: M.W. 11,532.06 g/mol as printed in the methods; also called MTALND4; synthetic MTALTND4; source: synthetic peptide (LifeTein; purity verified by HPLC by the supplier)
With B1, the “stoichiometry N” value stood at 2.

Broadly, the stoichiometry N is a count of units in the complex or per binding partner.

The values are drawn from publication PMC10193809, “A small protein coded within the mitochondrial canonical gene nd4 regulates mitochondrial bioenergetics” (BMC Biology, 2023).
